Data as given in patent US20070232789A1 (UNIVERSITY OF MARYLAND BALTIMORE, published 2007).

Assays:
[1] = molecular target: LRP on mouse embryonic fibroblasts (MEF cells) (mouse, UniProt Q91ZX7 20-4545); assay: cell-based or functional assay
[2] = molecular target: T1, low-density lipoprotein receptor-related protein (LRP), purified (human, UniProt Q07954 20-4544); assay: homologous displacement of ^125I-A2 (5 nM) by unlabeled A2 on LRP-coated wells, LIGAND fit
T1 construct: mature; also called low density lipoprotein receptor-related protein/α2-macroglobulin receptor; LRP receptor

[3] = molecular target: T1, low-density lipoprotein …; assay: heterologous displacement of ^125I-fVIII (1 nM) from immobilised LRP; isolated A2 domain as unlabeled competitor
Method: Solid-phase binding assays. […] Microtiter wells were coated with purified LRP or BSA (3 μg/ml) in 50 mM Tris, 0.15 M NaCl, pH 8.0, for 16 h and then blocked with 3% BSA in TBS. […] The radioactivity bound to the wells was counted using a γ-counter (Pharmacia). Affinity constants were derived from homologous and heterologous displacement data using the computer program LIGAND (Munson, P T and Rodbard, D. Anal. Biochem. 107:220-239 (1980)).

Chain of LRP on mouse embryonic fibroblasts (MEF cells) (Q91ZX7 20-4545): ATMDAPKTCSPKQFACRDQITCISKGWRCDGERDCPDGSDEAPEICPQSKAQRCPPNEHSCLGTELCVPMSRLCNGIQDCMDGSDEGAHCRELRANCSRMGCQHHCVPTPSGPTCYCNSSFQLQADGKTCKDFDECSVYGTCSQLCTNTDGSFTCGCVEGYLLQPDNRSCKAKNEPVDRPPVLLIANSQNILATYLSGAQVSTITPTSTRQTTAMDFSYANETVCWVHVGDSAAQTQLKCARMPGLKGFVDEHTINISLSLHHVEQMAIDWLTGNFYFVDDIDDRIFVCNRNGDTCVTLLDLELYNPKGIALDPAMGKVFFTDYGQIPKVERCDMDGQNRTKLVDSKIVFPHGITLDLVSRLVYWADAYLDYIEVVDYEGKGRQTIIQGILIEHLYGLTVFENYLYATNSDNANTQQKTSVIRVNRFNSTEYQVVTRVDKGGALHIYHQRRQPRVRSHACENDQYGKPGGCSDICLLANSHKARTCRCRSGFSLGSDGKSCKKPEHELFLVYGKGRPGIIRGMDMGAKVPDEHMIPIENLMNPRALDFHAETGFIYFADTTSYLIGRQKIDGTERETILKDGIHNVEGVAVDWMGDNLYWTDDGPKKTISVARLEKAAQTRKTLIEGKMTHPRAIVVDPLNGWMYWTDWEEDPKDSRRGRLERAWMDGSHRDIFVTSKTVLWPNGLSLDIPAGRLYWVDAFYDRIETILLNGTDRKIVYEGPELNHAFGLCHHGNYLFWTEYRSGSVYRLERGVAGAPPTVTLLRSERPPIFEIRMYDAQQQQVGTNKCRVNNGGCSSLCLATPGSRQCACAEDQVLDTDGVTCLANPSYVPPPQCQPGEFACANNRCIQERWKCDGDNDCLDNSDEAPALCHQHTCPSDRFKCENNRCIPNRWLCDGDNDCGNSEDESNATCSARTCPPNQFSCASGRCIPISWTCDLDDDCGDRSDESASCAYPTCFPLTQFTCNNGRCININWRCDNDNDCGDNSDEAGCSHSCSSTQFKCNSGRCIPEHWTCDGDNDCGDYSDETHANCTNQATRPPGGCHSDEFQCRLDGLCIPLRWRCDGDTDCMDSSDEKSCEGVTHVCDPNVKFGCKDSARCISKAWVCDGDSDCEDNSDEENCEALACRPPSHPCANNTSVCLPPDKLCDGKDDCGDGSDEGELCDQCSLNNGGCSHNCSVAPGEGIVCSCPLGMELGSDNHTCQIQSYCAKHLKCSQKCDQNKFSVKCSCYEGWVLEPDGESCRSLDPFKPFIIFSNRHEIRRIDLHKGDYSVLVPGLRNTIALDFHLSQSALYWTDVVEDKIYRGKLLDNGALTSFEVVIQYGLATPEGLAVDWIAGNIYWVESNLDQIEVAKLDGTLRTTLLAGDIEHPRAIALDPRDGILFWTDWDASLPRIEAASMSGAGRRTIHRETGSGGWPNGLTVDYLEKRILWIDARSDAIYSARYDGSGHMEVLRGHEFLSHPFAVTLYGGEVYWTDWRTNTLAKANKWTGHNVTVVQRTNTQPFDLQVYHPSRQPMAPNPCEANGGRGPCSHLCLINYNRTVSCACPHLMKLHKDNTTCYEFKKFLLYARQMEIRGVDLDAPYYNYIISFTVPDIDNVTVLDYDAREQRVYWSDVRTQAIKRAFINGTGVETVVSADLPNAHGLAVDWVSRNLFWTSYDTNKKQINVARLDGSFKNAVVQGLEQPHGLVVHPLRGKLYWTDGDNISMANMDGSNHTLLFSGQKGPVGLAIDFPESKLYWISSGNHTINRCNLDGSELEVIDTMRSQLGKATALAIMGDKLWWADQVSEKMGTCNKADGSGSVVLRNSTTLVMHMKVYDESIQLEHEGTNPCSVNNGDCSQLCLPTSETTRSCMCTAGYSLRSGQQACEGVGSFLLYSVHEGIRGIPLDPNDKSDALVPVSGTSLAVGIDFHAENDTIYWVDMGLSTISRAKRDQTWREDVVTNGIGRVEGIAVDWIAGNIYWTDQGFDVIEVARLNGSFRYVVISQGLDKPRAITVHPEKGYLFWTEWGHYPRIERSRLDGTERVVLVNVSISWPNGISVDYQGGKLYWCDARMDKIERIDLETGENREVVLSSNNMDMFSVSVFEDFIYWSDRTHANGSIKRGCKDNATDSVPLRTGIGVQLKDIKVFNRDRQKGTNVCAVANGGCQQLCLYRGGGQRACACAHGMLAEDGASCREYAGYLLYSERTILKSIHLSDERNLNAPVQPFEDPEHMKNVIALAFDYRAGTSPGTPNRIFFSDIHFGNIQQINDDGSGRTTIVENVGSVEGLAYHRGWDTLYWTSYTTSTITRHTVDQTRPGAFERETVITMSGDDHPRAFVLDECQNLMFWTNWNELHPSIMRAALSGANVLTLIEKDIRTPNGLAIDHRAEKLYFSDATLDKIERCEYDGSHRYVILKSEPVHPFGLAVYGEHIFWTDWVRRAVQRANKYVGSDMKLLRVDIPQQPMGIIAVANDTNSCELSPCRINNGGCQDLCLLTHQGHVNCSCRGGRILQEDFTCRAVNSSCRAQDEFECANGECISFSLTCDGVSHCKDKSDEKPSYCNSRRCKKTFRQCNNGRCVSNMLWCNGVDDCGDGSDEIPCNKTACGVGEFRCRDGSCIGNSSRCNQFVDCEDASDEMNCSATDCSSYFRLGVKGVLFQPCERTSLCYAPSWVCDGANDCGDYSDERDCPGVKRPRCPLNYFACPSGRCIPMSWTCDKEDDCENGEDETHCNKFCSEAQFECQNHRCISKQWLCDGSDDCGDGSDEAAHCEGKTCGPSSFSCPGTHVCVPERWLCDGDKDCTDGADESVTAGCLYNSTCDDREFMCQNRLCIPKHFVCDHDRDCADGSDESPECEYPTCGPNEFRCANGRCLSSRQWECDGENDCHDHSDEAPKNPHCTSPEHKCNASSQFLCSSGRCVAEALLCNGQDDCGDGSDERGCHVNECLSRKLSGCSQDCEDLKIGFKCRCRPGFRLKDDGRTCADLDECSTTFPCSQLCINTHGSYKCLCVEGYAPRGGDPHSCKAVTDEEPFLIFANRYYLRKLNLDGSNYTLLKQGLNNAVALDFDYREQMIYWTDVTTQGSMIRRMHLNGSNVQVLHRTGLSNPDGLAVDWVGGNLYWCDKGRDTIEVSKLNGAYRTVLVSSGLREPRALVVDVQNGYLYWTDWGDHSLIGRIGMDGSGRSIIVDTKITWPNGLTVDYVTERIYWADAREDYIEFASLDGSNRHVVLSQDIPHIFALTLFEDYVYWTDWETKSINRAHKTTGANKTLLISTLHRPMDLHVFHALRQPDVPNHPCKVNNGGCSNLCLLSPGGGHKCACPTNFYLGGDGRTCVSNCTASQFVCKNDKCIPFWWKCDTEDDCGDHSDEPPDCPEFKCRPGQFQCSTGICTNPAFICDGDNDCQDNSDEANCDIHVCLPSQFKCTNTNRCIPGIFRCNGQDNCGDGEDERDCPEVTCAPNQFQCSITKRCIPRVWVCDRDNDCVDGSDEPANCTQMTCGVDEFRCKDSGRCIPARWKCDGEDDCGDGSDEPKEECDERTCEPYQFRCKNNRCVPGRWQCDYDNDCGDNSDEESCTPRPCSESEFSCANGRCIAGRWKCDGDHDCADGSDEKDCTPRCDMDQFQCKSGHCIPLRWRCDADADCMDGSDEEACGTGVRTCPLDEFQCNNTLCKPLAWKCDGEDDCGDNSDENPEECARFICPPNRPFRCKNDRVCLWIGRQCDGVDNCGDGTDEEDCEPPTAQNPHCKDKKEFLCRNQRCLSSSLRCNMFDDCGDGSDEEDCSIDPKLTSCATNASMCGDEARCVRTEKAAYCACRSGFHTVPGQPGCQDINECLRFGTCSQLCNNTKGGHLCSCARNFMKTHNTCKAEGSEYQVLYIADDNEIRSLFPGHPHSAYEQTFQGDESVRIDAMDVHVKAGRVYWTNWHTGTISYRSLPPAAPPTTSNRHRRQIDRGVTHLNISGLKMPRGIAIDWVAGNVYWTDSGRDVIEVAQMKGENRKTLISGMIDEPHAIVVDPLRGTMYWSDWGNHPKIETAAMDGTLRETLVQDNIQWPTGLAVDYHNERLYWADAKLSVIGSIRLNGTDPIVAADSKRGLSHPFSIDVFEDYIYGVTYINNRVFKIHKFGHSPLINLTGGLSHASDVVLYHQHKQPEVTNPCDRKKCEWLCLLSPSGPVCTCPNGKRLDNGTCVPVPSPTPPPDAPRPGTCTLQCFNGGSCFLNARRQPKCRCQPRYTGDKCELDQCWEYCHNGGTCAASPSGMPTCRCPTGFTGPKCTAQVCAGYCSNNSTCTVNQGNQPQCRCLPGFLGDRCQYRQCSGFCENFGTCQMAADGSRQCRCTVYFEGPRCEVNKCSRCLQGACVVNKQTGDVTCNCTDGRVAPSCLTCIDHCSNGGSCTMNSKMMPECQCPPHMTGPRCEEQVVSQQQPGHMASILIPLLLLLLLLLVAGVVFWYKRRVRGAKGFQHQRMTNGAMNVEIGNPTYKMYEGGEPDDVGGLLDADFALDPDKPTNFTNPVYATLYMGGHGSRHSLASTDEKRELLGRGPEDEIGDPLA

inhibition of degradation of ^125I-fVIII/vWf complex by MEF cells by a 1000-fold excess of A2 [1]: > 60%
inhibition of internalization of ^125I-fVIII/vWf complex by MEF cells by a 1000-fold excess of A2 [1]: > 70%
Kd [2]: 130 nM
Ki [3]: 132 nM
B1: A2 subunit of factor VIII, plasma-derived (from thrombin-activated fVIII) (other)
chain: SVAKKHPKTWVHYIAAEEEDWDYAPLVLAPDDRSYKSQYLNNGPQRIGRKYKKVRFMAYTDETFKTREAIQHESGILGPLLYGEVGDTLLIIFKNQASRPYNIYPHGITDVRPLYSRRLPKGVKHLKDFPILPGEIFKYKWTVTVEDGPTKSDPRCLTRYYSSFVNMERDLASGLIGPLLICYKESVDQRGNQIMSDKRNVILFSVFDENRSWYLTENIQRFLPNPAGVQLEDPEFQASNIMHSINGYVFDSLQLSVCLHEVAYWYILSIGAQTDFLSVFFSGYTFKHKMVYEDTLTLFPFSGETVFMSMENPGLWILGCHNSDFRNRGMTALLKVSSCDKNTGDYYEDSYEDISAYLLSKNNAIEPR
notes: Radio-iodinated where used as tracer; also called A2 domain; plasma-derived A2
